Measurements published in US20170240635A1 (AGENCY FOR SCIENCE TECHNOLOGY AND RESEARCH, published 2017).
Numbering of substitutions follows the chain as printed. Like-named read-outs stand apart in the source and are kept apart here. One block for each binder: values may come before it.

What was measured:
hCTLA4-Fc = molecular target: T1, hCTLA4-Fc (human, UniProt P16410); experiment: ELISA; antigen coated 350 ng/well, Fab-containing supernatant, goat anti-human Fab-HRP, absorbance 450-670 nm
T1 construct: also called human CTLA-4; human CTLA4
T1 sequence (P16410 37-162 limits assumed): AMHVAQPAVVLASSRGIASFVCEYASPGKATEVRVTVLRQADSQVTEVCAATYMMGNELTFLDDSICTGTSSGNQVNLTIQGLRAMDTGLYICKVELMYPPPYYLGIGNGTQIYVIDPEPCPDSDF

[1] = molecular target: T2, human PD-1 coupled to human Fc (human, UniProt Q15116 25-167, limits assumed); experiment: SPR (ProteOn XPR36); human PD-1-Fc immobilised, crude Fab extract flown over
T2 construct: also called human-PD-1 coupled to Fc; not shown: human Fc
T2 sequence (Q15116 25-167 limits assumed): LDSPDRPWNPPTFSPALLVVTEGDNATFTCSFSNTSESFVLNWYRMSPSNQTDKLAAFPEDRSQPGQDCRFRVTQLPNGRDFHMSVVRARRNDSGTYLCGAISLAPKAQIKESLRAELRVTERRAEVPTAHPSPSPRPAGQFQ
Protocol: Briefly, human or mouse PD-1 coupled to human Fc was immobilised on a sensor chip compatible with the Proteon XPR36 bioanalyser (Biorad). Crude Fab extracts (or the control antibodies) were then flown onto the chip and the association/dissociation of each candidate Fab was then recorded and analysed, the affinity (KD) was calculated.

[2] = molecular target: T3, human BTLA coupled to human Fc (human, UniProt Q7Z6A9 31-150, limits assumed); experiment: ELISA; antigen coated 350 ng/well, goat anti-human Fab-HRP, absorbance 450-670 nm
T3 construct: ELISA coating antigen; not shown: human Fc
T3 sequence (Q7Z6A9 31-150 limits assumed): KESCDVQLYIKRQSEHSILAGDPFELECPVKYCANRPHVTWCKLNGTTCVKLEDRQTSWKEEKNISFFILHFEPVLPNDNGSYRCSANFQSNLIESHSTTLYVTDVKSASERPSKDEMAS
Protocol: (§1) Anti-PD-1 antibodies were tested in an ELISA assay for their ability to bind to other members of the CD28 family.
(§2) Briefly, ELISA plates were coated with 350 ng/well of one of the following antigens coupled to human Fc in carbonate buffer: human PD-1, human PD-L1, human TIM-3, human LAG-3, human ICOS, human CTLA4, human BTLA, human CD28, mouse TIM-3, or rhesus PD-1. The plate was then blocked with a solution of casein. After extensive washes in PBS Tween-20, antibodies were added into the ELISA wells in the presence of 7% milk in PBS. After 90 minutes at room temperature under agitation and extensive washes, a goat anti-human Fab antibody coupled to HRP was added. One hour later, plates were washed and TMB substrate added. The reaction was stopped with 1M HCl and optical density measured at 450 nm with a reference at 670 nm.

[3] = molecular target: T4, human CD28 coupled to human Fc (human, UniProt P10747 19-152, limits assumed); experiment: as above
T4 construct: ELISA coating antigen; not shown: human Fc
Protocol: as §1, §2

hICOS-Fc = molecular target: T5, hICOS-Fc (human, UniProt Q9Y6W8); experiment: as above
T5 construct: also called human ICOS
T5 sequence (antigen, looked up): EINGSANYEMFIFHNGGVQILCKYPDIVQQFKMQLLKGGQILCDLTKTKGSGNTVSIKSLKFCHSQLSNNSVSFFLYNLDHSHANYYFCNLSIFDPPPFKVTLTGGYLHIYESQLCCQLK
Protocol: as §1, §2

[4] = molecular target: T6, human PD-L1 coupled to human Fc (human, UniProt Q9NZQ7 19-239, limits assumed); experiment: as above
T6 construct: ELISA coating antigen; not shown: human Fc
T6 sequence (Q9NZQ7 19-239 limits assumed): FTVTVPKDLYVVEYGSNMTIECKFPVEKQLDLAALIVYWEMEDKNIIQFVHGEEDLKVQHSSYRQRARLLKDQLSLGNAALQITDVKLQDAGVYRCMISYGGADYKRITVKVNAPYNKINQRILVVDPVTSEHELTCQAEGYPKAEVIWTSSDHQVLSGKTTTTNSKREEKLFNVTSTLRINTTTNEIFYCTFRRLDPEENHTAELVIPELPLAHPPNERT
Protocol: as §1, §2

mTim3-Fc = molecular target: T7, mTim3-Fc (mouse, UniProt Q8VIM0); experiment: as above
T7 construct: also called mouse TIM-3
T7 sequence (Q8VIM0 20-191 limits assumed): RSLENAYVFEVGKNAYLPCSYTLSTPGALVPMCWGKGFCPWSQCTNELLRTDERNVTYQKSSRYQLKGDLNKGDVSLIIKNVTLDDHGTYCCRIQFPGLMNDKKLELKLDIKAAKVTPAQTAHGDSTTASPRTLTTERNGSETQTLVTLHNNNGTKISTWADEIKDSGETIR
Protocol: as §1, §2

[5] = molecular target: T8, human LAG-3 coupled to human Fc (human, UniProt P18627 23-450, limits assumed); experiment: as above
T8 construct: ELISA coating antigen; not shown: human Fc
T8 sequence (looked up): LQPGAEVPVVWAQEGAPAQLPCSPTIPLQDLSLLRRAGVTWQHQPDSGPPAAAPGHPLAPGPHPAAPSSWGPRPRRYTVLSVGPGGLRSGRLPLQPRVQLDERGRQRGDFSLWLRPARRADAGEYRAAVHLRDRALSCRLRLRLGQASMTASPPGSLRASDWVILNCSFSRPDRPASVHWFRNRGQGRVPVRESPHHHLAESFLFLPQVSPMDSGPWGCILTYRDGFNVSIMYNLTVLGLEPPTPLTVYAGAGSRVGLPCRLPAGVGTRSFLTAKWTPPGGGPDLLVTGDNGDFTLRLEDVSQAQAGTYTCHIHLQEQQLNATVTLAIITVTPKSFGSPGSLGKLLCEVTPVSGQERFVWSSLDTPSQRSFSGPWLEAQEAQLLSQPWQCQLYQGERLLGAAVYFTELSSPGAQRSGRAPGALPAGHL
Protocol: as §1, §2

[6] = molecular target: T9, human TIM-3 coupled to human Fc (human, UniProt Q8TDQ0 22-200, limits assumed); experiment: as above
T9 construct: not shown: human Fc
Protocol: as §1, §2

[7] = molecular target: T10, PD-1 on exhausted human T cells (human, UniProt Q15116 25-288); experiment: flow cytometry (MFI); IgG4 on human T cells activated 7 days with allogeneic DCs, fluorescent secondary antibody
T10 construct: whole, on cells; T cells exhausted by 7 days of culture with allogeneic monocyte-derived dendritic cells
T10 sequence (Q15116 25-288): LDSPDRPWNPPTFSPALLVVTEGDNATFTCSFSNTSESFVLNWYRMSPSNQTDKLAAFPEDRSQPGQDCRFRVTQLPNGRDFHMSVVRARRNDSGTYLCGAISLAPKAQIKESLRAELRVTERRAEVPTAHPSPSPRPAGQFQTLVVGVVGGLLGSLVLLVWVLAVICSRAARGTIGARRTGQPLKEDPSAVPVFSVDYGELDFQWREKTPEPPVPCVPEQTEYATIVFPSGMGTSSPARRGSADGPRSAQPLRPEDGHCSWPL
Protocol: (§3) 50,000 T cells isolated from a healthy donor were incubated in the presence of 5,000 monocyte-derived DCs from another donor for 7 days at 37° C. Antibodies, expressed as IgG4, were incubated with such activated T cells for 30 minutes in PBS. After a wash in PBS, a fluorescent labelled secondary antibody was added for 30 minutes and then washed in PBS. Cells were resuspended in FACS buffer and binding of the antibody to the cells was monitored by flow cytometry (FIGS. 6 and 7).

[8] = molecular target: T10, PD-1 on exhausted human T cells; experiment: as above; remark: listed apart in the source
Protocol: as §3

B3: A3-IgG4 (antibody, V domains shown)
VH: QVQLVQSGGGVVQPGRSLRLSCAASGFTFSSYGMHWVRQAPGKGLEWVAVISYDGSNKYYADSVKGRFTISRDNSKNTLYLQMNSLRAEDTAVYYCASDLGAGPYYYGKDHWGQGTTVTVSS
VL: LPVLTQPPSASGTPGQRVTISCSGSSSNIKFNSVNWYQQLPGTAPKLLIYSNNQRPSGVPDRFSGSKSGTSASLAISGLQSEDEADYFCASWDDVLYGSVFGGGTKLTVL
notes: also called anti-PD-1 antibody clone A3 (human IgG4)
EC50 [7]: 0.855 nM

B4: A10-IgG4 (antibody, V domains shown)
VH: B3 VH with H111V
VL: B3 VL with V95Y, L96Y, S99T, V100I
notes: also called anti-PD-1 antibody clone A10 (human IgG4)
EC50 [7]: 0.262 nM | EC50 [8]: 0.253 nM

The next lines start with the values.

binding result (hCTLA4-Fc): no binding (tested: not given) | Kd [1]: 0.21 nM | binding result [2]: no binding (tested: not given) | binding result [3]: no binding (tested: not given) | binding result (hICOS-Fc): no binding (tested: not given) | binding result [4]: no binding (tested: not given) | binding result (mTim3-Fc): no binding (tested: not given) | binding result [5]: no binding (tested: not given) | binding result [6]: no binding (tested: not given)
B1: anti-PD-1 antibody clone E1 (Fab) (Fab, V domains shown)
VH: B3 VH with Q6E, K109M, H111V
VL: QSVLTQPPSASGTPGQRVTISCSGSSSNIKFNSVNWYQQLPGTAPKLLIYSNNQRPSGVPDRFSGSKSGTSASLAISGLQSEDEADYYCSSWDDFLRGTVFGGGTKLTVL
notes: Crude Fab extract in SPR

binding result (hCTLA4-Fc): no binding (tested: not given) | Kd [1]: 0.27 nM | binding result [2]: no binding (tested: not given) | binding result [3]: no binding (tested: not given) | binding result (hICOS-Fc): no binding (tested: not given) | binding result [4]: no binding (tested: not given) | binding result (mTim3-Fc): no binding (tested: not given) | binding result [5]: no binding (tested: not given) | binding result [6]: no binding (tested: not given)
B2: anti-PD-1 antibody clone G10 (Fab) (Fab, V domains shown)
VH: B3 VH with Q6E, L100Y, K109M, H111V
VL: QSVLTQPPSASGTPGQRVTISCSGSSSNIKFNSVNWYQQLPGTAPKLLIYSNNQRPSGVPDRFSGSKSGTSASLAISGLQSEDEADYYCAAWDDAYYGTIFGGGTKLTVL
notes: Crude Fab extract in SPR
